Test results reported in the nanobody polyreactivity screen of Harvey et al. (2022).

Experiment: yeast display, Sf9 membrane polyspecificity reagent, FACS + sequencing; frameworks hold sequencing errors
Outline: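 Nanobodies came from a synthetic yeast display library in Saccharomyces cerevisiae BJ5465, induced with galactose for 36–48 hours and stained for 1 hour at 4 °C with 10% biotinylated, detergent-solubilized Sf9 membrane reagent. Cells were enriched on streptavidin microbeads and then FACS-sorted, with low and high (top ~1%) gates set on anti-HA fluorescence for expression and streptavidin fluorescence for reagent binding. Each polyreactivity label reflects the gate a clone came from. Genes were amplified by colony PCR, sequenced by MiSeq 2 × 250 and filtered by CDR length.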
With “QVQLVESGGGLVQAGGSLRLSCAASGRTFVGYAMGWDRQAPGKERELVATITSSGRTNYADSVKGRCTISRDNAKNTVYLQMNSLKPEDTAVYYCNKQRTRWYDYWGQGTQVTVSS” the “polyreactivity (PSR sort gate)” value was “high polyreactivity”. In the case of “QVQLVESGGGLVQAGGSLRLSCAASGRTFVGYAMGWYRQAPGKEREFVADITYDSGSTYYADSVKGRFTISRDNAKNTVYLQMNSLKPEETAVYYCAAPDYWAYTRSMDYWGQGTQVTVSS”, the “polyreactivity (PSR sort gate)” value is reported as “high polyreactivity”. With “QVQLVESGGGLVQAGGSLRLSCAASGRTFVGYVMGWYRQAPGKERDLVAAITSRGGRTYYADSLKGRFTISRDNAKNTVYLQMNSLNPEDTGVYYCYAAHGSRAFFGGYDYWGQGTEVTVSS” the “polyreactivity (PSR sort gate)” value was “high polyreactivity”. For “QVQLVESGGGLVQAGGSLRLSCAASGRTFVHYTMGWYRQTPGKDRELVAAISGTGTSTYYADSVKGRFTISRDNAKNTVYLQMNSLKPEDTAVYYCARDPYFGFHIGYPRRDYWGQGTQVTVSS”, the “polyreactivity (PSR sort gate)” value was “low polyreactivity”. With “QVQLVESGGGLVQAGGSLRLSCAASGRTFVIYAMGWYRQAPGKQRELVAAISKSGGRTYYADSVKGRFTISRDNAKNSVYLQMNSLKPEDTAVYYCNKVLSVSQAGGFDYWGQGTQVTVSS” the “polyreactivity (PSR sort gate)” value was “high polyreactivity”. In the case of “QVQLVESGGGLVQAGGSLRLSCAASGRTFVKNAMGWYRQAPGKERELVAISWSTGGTYYADSVKGRFTISRDNAKNTVYLQMNSLKPEDTAVYYCNADWGSVNGYSGYYYWGQGTQVTVSS”, the “polyreactivity (PSR sort gate)” value is reported as “low polyreactivity”. With “QVQLVESGGGLVQAGGSLRLSCAASGRTFVKYAMGWYRQAPGKERELVAAISWSGGSTYYADSVKGRFTISRDNAKNTVYLQMNSLKPEDTAVYYCNTAQRYRVYRYDYWGQGTQVTVSS” the “polyreactivity (PSR sort gate)” value was “high polyreactivity”. For “QVQLVESGGGLVQAGGSLRLSCAASGRTFVNNAMGWYRQAPGKERELVAAISRSGGSTYYADSVKGRFTISRDNAKNTVYLQMNSLKPEDTAVYYCNKASNVRGYEYWGQGTQVTVSS”, the “polyreactivity (PSR sort gate)” value was “high polyreactivity”. For “QVQLVESGGGLVQAGGSLRLSCAASGRTFVPYAMGWYRQAPGKEREFLAAISWRGGSTYYADSVKGRFTISRDNAKNTVYLQMNSLKPEDTAVYYCAARYKRGFGVRFGYDYWGQGTQVTVSS”, the “polyreactivity (PSR sort gate)” value was “high polyreactivity”. For “QVQLVESGGGLVQAGGSLRLSCAASGRTFVPYVMGWYRQAPGKERELVAAISSSGGNTYYADSVKGRFTISPDNAKNTVYLQMNSLKPEDTAVYYCAARPRGYVYPGYYYWGQGSQVTVSS”, the “polyreactivity (PSR sort gate)” value was “high polyreactivity”. For “QVQLVESGGGLVQAGGSLRLSCAASGRTFVRNAKGWYRQAPGKERELVAAITSGGSTYYADSVKGRFTISRDNAKNTVYLQMNSLKPEDTAVYYCAAISTWGTKYDYWGQGTQVTVSS”, the “polyreactivity (PSR sort gate)” value was “high polyreactivity”. In the case of “QVQLVESGGGLVQAGGSLRLSCAASGRTFVRNAMGWSRQAPGKERELDAAITSGGSTYYADSVKGRFTISRDNAKNTVYLQMNSLKPEDTAVYYCAAVDRRYGPTYKMGYWGQGTQVTVSS”, the “polyreactivity (PSR sort gate)” value is reported as “high polyreactivity”. With “QVQLVESGGGLVQAGGSLRLSCAASGRTFVRNAMGWYRQAPGKERELVAAISRGGRTNYADSVQGRFTISRDNAKNTVYLKMNSLKPEDTAVYYCATGAGYYFDYDYWGQVTQVTVSS” the “polyreactivity (PSR sort gate)” value was “high polyreactivity”. For “QVQLVESGGGLVQAGGSLRLSCAASGRTFVSNAMGWYRQAPGKERELVAAISSSGGSTYYADSVKGRFTISRDNAKNTVYLQMNSLKPEDTAVYYCATYPWYSKYRYDHWGQGTQVTVSS”, the “polyreactivity (PSR sort gate)” value was “high polyreactivity”. With “QVQLVESGGGLVQAGGSLRLSCAASGRTFVSNSMGWYRQAPGKERELVAAISSSGGSTYYADSVKGRFTISRDNEKNTVYLQMNILKPEETAVYYCANDPWYSKYRYDHWGQGTQVTVSS” the “polyreactivity (PSR sort gate)” value was “high polyreactivity”. With “QVQLVESGGGLVQAGGSLRLSCAASGRTFVSYTMVWYRQAPGKERELVAAISSGGSTTYADSVKGRFTISRDNAKNTVYLQKNSLKPEDTAVYYCNARYGWSYWSKYDYWGQGTQVTVSS” the “polyreactivity (PSR sort gate)” value was “high polyreactivity”. With “QVQLVESGGGLVQAGGSLRLSCAASGRTFVTNAMGWYRQAPGKERELVAAIRWSSDSTYYADSVKGRFTISRDNAKNTVYLQMNSLKPEDTAVYYCAKQWYVAKISYDYWGQGTQVTVST” the “polyreactivity (PSR sort gate)” value was “high polyreactivity”. For “QVQLVESGGGLVQAGGSLRLSCAASGRTFVTNAMGWYRQAPGKERELVAAISSSGGSTYYADSVKGRFTISRDNAKNTVFLQMNSLKPEDTAVYYCAVGGQTKGQYDYWGQGTQVTVSS”, the “polyreactivity (PSR sort gate)” value was “low polyreactivity”. With “QVQLVESGGGLVQAGGSLRLSCAASGRTFVTNAMGWYRQAPGKERELVATIRFSGGGTYYAVSVKGRFTISRDNAKNTVYLQMNSLKPEDTAVYYCNADSIDPFLYDYWGQGTQVTVSS” the “polyreactivity (PSR sort gate)” value was “low polyreactivity”. With “QVQLVESGGGLVQAGGSLRLSCAASGRTFVTYAMGWYRQAPGQERELVAAISASGGSTYYADSVKGRFTISRDNAKNTVYLQMNSLKPEDTAVYYCAKTYFLATPYGYWGQGTQVTVSS” the “polyreactivity (PSR sort gate)” value was “low polyreactivity”. For “QVQLVESGGGLVQAGGSLRLSCAASGRTFVTYGMGWYRQAPGKERELVATIRSGTTTNYADSVKGRFTISRDNAKNTVYLQMNSLKPEDTAVYYCNARGLRASSRRYYYWGQGTQVTVSS”, the “polyreactivity (PSR sort gate)” value was “high polyreactivity”. For “QVQLVESGGGLVQAGGSLRLSCAASGRTFVVNAMGWYRQAPGKERELVAAITRRGGITYYADSVKGRFTISRDNAKNTVYLQMNSLKPEDTAVYYCAADRSYYPDTRTTYGYNYWGQGTQVTVSS”, the “polyreactivity (PSR sort gate)” value was “low polyreactivity”. With “QVQLVESGGGLVQAGGSLRLSCAASGRTFVVNAMGWYRQAPGKERELVAAIYADSVKGRFTISRDNEKNTVYLQMNSLKPEDTAVYYCAASGGTWVNYRPEYDYWGQGTQVTVSS” the “polyreactivity (PSR sort gate)” value was “low polyreactivity”. With “QVQLVESGGGLVQAGGSLRLSCAASGRTFVVYAMGWYRQAPGKERELVAAISWSGGLTYYADSVKGRFTISRDNAKNTVYLQLNSVKPEDTAVYYCAAEVYLYKYVYYYWGQGTQVTVSS” the “polyreactivity (PSR sort gate)” value was “high polyreactivity”. For “QVQLVESGGGLVQAGGSLRLSCAASGRTFVWNVMGWYRQAPGKEREFVAAISGGSTYYADSVKGRFTISRDNAKNTVYLQMTSLKPEDTAVYYCAADSKLHPRYEYWGQGTQVTVSS”, the “polyreactivity (PSR sort gate)” value was “low polyreactivity”. With “QVQLVESGGGLVQAGGSLRLSCAASGRTFVYNAMGWYRPAPGKERELVAAIDGGGDRTYYADSVKGRFTISRDNAKNTVYLQMNSLKPEDTAVYYCARDPGDTYYYSYPEGDYWGQGTQVTVSS” the “polyreactivity (PSR sort gate)” value was “low polyreactivity”. In the case of “QVQLVESGGGLVQAGGSLRLSCAASGRTFVYNAMGWYRQAPGKERELVAAIDGGGDRTYYADSVKGRFTISRDNAKNTVYLQMNSLKPEDTAVYYCARDPGDTYYYSYPEGDYWGLGTQVTVSS”, the “polyreactivity (PSR sort gate)” value is reported as “low polyreactivity”. In the case of “QVQLVESGGGLVQAGGSLRLSCAASGRTFVYNAMGWYRQAPGKERELVAAITSGGRTYYADSVKGRFTISRDNAKNTVYLQMNSLKPEDTAVYYCNAGVGARESDYWGQCTQVTVSS”, the “polyreactivity (PSR sort gate)” value is reported as “low polyreactivity”. With “QVQLVESGGGLVQAGGSLRLSCAASGRTFVYNAMGWYRQAPGKERELVAAITTSGASTYYADSVKGRFTISRDNAKNTVYLQMNSLKPEDTAVYYCNAYSRYSYGRTYGYWGQGTQVTVSS” the “polyreactivity (PSR sort gate)” value was “high polyreactivity”. For “QVQLVESGGGLVQAGGSLRLSCAASGRTFVYNAMGWYRQAPGKERELVAGITGSGDSTYYADSVKGRFTISRDNAKNTVYLQMNSLKPEDTAVYYCNQLVEEDYWGQGTQVTVSS”, the “polyreactivity (PSR sort gate)” value was “low polyreactivity”. For “QVQLVESGGGLVQAGGSLRLSCAASGRTFVYNAMGWYRQAPGNERELVAAITSGGRTYYADSVKGRFTISRDNAKNTVYLQMNSLQPEDTAVYYCAKRFWFNTYAAHPAGFDYWGQGTQVTVSS”, the “polyreactivity (PSR sort gate)” value was “low polyreactivity”. In the case of “QVQLVESGGGLVQAGGSLRLSCAASGRTFVYNAMGWYRQEPGKERELVAAITWNGGSKYYADSVKGRFTISRDNAKITVYLQMNSLKPEDTAVYYCNRDVRYVGPSGFDYWGQGTQVTVSS”, the “polyreactivity (PSR sort gate)” value is reported as “high polyreactivity”.
